Results published in patent publication US20140308283A1 (TORAY INDUSTRIES, published 2014).

B1: mouse monoclonal antibody #3 (antibody, V domains shown)
VH: GGGLVKPGGSLKLSCAASGFTFSSYGMSWVRQTPEKRLEWVATISSGGSYTYYPDSVKGRFTISRDNAKNTLYLQMSSLRSEDTAMYYCASLASYYFDYWGQGTTLTVSS
VL: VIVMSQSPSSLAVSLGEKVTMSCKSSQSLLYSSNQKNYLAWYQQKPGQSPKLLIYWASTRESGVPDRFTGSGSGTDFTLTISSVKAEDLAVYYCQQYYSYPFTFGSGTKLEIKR
B2: mouse monoclonal antibody #8 (antibody, V domains shown)
VH: GGGLVKPGGSLKLSCAASGFAFSSYDMSWIRQTPEKRLEWVAYISSGAGSTYYPDTVKGRFTVSRDNAKNTLYLQMSSLKSEDTAMYYCARHFYRFDYWGQGTTVTVSS
VL: SIVMTQTPKFLLVSAGDRITITCKASQSVSNDVAWYQQKPGQSPKLLIYYASNRYTGVPDRFTGSGYGTDFTFTISTVQAEDLAVYFCQQDDRFPLTFGAGPS
notes: Mouse hybridoma antibody; also called anti-CAPRIN-1 mouse monoclonal antibody #8
B3: mouse-chicken chimeric antibody #1 (antibody, mouse IgG1, V domains shown)
VH: AVTLDESGGGLQMSRGGLSLVCKASGFDFSSYQMNWIRQAPGKGLEFVAAINKFGNSTGHGAAVKGRVTISRDNGQSTVRLQLNNLRAEDTAIYFCTKHAYGYCGSGTWCAAGEIDAWGHGTEVIVSS
VL: QAASTQPSSVSANPGETVEITCSGGGSYSYGWFQQKSPGSAPVTVIYYNNKRPSDIPSRFSGSKSGSTGTLTITGVQADDEAVYYCGSGDSTDTAVFGAGTTLTVLG
notes: from CHO-K1 culture supernatant; also called anti-CAPRIN-1 mouse-chicken chimeric antibody #1
B4: mouse monoclonal antibody #6 (antibody)
chain 1: DAELVKPGASVKISCKASGYTFTDHSIHWVQQKPEQGLEWIGYISPGNGNIKYNEKFKGKATLTADKSSSTAYMQLNSLTSEDSAVYFCKRSLGRGGPYYFDYWGQGTTVTVSS
chain 2: DIVLTQAAPSLPVTPGESVSISCRSSKSLLHSNGNTYLYWFLQRPGQSPQLLIYRMSNLASGVPDRFSGSGSGTAFTLRISRVEAEDVGVYYCMQHREYPVTFGSGPN
B5: mouse monoclonal antibody #13 (antibody)
chain 1: EVQLHQFGAELVKPGASVKISCKASGYTFTDYNMDWVKQSHGKSLEWIGDINPNYDSTSYNQKFKGKATLTVDKSSSTAYMELRSLTSEDTAVYYCARSRSYDYEGFAYWGQGTLVTVSAAKTTPPSVY
chain 2: AVLRCSRGLLVIWISDIQLTQSPSSLAVTAGEKVTMSCKSSQSLLWSVNQKNYLSWYQQKQRQPPKLLIYGASIRESWVPDRFTGSGSGTDFTLTISNVHAEDLAVYYCQHNHGSFLPSRSEQVPSWRSNNR
B6: mouse-chicken chimeric antibody #3 (antibody, mouse IgG1, V domains shown)
VH: AVTLDESGGGLQTPGGALSLVCKASGFTFSGYDMLWVRQAPGKGLEWVAGIGSTGGGTDYGAAVKGRATISRDNGQSTVRLQLNNLRAEDTATYYCAKVAGGCNSGYCRDSPGSIDAWGHGTEVIVS
VL: AVTQQPASVSANPGETVKITCSGGGSRNYYGWYQQKSPGSVPVTVIYYDDQRPSNIPSRFSGALSGSTSTLTITGVQADDEAVYFCGSADSNTYEGSFGAGTTLTVL
notes: also called anti-CAPRIN-1 mouse-chicken chimeric antibody #3
B7: mouse monoclonal antibody #18 (antibody, V domains shown)
VH: LQESGAELARPGASVKLSCKASGYTFTSYWMQWVKQRPGQGLEWIGAIYPGDGDTRYTQKFKGKATLTADKSSSTAYMQLSSLASEDSAVYYCARGEYGNYFAYWGQGTTVTVSS
VL: TSDASLGERVTITCKASQDINSYLSWFQQKPGKSPKTLIYRANRLVDGVPSRFSGSGSGQDYSLTISSLEYEDMGIYYCLQYDEFPLTFGGGTKLEIKQ
notes: Mouse hybridoma antibody; also called anti-CAPRIN-1 mouse monoclonal antibody #18
B8: mouse-chicken chimeric antibody #2 (antibody, mouse IgG1, V domains shown)
VH: AVTLDESGGGLQTPGGGLSLVCKASGFTFSSFDMGWVRQAPGKGLEFVAQINDAGSRTWYATAVKGRATISRDNGQTTVRLQLNNLRAEDTGTYYCTRGSGYVGAGAIDAWGHGTEVIVS
VL: AALTQPSSVSANPGETVKITCSGGSGYYGWYQQQKSPGSAPVTVIYQNDKRPSDIPSRFSGSGSGSTNTLTITGVQAEDEAVYFCGRYDSTDSGIFGAGTTLTVL
notes: also called anti-CAPRIN-1 mouse-chicken chimeric antibody #2
B9: mouse monoclonal antibody #12 (antibody, V domains shown)
VH: EVQLHQFGAELVKPGASVKISCKASGYTFTDYNMDWVKQSHGKSLEWIGDINPNYDSTSYNQKFKGKATLTVDKSSSTAYMELRSLTSEDTAVYYCARSRSYDYEGFAYWGQGTLVTVSA
VL: DIQMTQSPASLSASVGETVTITCRASGNIHNYLAWYQQKQGKSPQLLVYNAKTLADGVPSRFSGSGSGTQYSLKINSLQPEDFGSYYCQHFWSTLTFGAGTKLELKR
notes: Mouse hybridoma antibody; also called anti-CAPRIN-1 mouse monoclonal antibody #12
B10: mouse monoclonal antibody #15 (antibody, V domains shown)
VH: B9 VH
VL: SGDRVSLSCRASQSISNYLHWYQQKSHESPRLLIKYASQSISGIPSRFSGSGSGTDFTLSINSVETEDFGMYFCQQSNSWPYTFGAGTKLEIKQ
notes: Mouse hybridoma antibody; also called anti-CAPRIN-1 mouse monoclonal antibody #15
B11: mouse monoclonal antibody #14 (antibody, V domains shown)
VH: B9 VH
VL: DIQLTQSPASLSASVGETVTITCRASGNIHNYLAWYQQKQGKSPQLLVYNAKTLADGVPSRFSGSGSGTQYSLKINSLQPEDFGSYYCQHFWSTLTFGGGTKLEIK
notes: Mouse hybridoma antibody; also called anti-CAPRIN-1 mouse monoclonal antibody #14
B12: human-chicken chimeric antibody #2 (antibody, human IgG1, kappa, V domains shown)
VH: AVTLDESGGGLQTPGGGLSLVCKASGFTFSSFDMGWVRQAPGKGLEFVAQINDAGSRTWYATAVKGRATISRDNGQTTVRLQLNNLRAEDTGTYYCTRGSGYVGAGAIDAWGHGTEVIVSA
VL: AALTQPSSVSANPGETVKITCSGGSGYYGWYQQQKSPGSAPVTVIYQNDKRPSDIPSRFSGSGSGSTNTLTITGVQAEDEAVYFCGRYDSTDSGIFGAGTTLTVLT

biological target: T1, CAPRIN-1 protein expressed on the cell membrane surface of human cancer cell lines (human, UniProt Q14444 2-709); assay: flow cytometry on Capan-2, MIAPaCa-2, PANC-1 and BxPC-3 cells, vs isotype control
T1 construct: whole, on cells; also called human CAPRIN-1; Cytoplasmic- and proliferation-associated protein 1
T1 sequence (looked up): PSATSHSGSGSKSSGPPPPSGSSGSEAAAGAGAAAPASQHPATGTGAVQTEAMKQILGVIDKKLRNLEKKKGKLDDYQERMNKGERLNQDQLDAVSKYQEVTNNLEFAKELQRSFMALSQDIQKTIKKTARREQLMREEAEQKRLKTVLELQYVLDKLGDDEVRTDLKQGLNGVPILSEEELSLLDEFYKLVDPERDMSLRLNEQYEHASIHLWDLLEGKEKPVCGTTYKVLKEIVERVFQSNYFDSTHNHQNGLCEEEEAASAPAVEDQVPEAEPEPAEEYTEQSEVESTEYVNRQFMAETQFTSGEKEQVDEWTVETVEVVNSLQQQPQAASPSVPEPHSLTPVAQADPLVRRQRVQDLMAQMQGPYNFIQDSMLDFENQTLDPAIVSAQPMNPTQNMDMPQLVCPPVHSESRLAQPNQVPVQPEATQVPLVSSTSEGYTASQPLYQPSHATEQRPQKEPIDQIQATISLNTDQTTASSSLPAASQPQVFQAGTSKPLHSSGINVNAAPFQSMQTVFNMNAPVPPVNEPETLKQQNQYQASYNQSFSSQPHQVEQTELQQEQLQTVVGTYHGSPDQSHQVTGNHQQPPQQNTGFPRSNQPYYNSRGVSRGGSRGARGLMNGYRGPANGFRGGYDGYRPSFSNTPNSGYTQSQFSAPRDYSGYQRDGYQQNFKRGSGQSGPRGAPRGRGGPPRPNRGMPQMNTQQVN
Experimental: Next, four pancreatic cancer cell lines (Capan-2, MIAPaCa-2, PANC-1, and BxPC-3) confirmed to have CAPRIN-1 gene expression were examined for their expression of CAPRIN-1 protein on the cell surface. 10⁶ cells of each cell line were centrifuged in each 1.5-ml microcentrifuge tube. The cancer cell surface-reactive anti-CAPRIN-1 mouse monoclonal antibodies #1 to #22 prepared in Example 4 and the culture supernatant (100 μl) containing the anti-CAPRIN-1 mouse-chicken chimeric antibody #1, #2, or #3 prepared in the preceding paragraph (2) were separately added to the tubes and left standing for 1 hour on ice. After washing with PBS, the cells were suspended in FITC-labeled goat anti-mouse IgG antibodies (manufactured by Invitrogen Corp.) diluted 500-fold with PBS containing 0.1% FBS and left standing for 1 hour on ice. After washing with PBS, the fluorescence intensity was measured using FACSCalibur (Becton, Dickinson and Company). On the other hand, the same operation as above was performed using isotype control antibodies, instead of the anti-CAPRIN-1 mouse monoclonal antibodies #1 to #22 and the culture supernatant containing the mouse-chicken chimeric antibody #1, #2, or #3, to prepare a control. As a result, all the cells supplemented with any of the monoclonal antibodies #1 to #22 and the mouse-chicken chimeric antibodies #1, #2, and #3 had fluorescence intensity at least 20% stronger than that of the control. […] The above rate of enhancement in fluorescence intensity was indicated by the rate of increase in mean fluorescence intensity (MFI) in each cell line and calculated according to the following expression: […]

| Binder | rate of increase in mean fluorescence intensity [%] |
| --- | --- |
| B1 | ≥ 20 |
| B2 | ≥ 20 |
| B3 | ≥ 20 |
| B4 | ≥ 20 |
| B5 | ≥ 20 |
| B6 | ≥ 20 |
| B7 | ≥ 20 |
| B8 | ≥ 20 |
| B9 | ≥ 20 |
| B10 | ≥ 20 |
| B11 | ≥ 20 |

biological target: T1, CAPRIN-1 protein expressed on the cell …; assay: cell-based or functional assay

| Binder | cytotoxic activity (ADCC) against MIAPaCa-2 and Capan-2 [%] |
| --- | --- |
| B1 | ≥ 10 |
| B12 | ≥ 10 |
| B2 | ≥ 10 |
| B4 | ≥ 10 |
| B5 | ≥ 10 |
| B7 | ≥ 10 |
| B9 | ≥ 10 |
| B10 | ≥ 10 |
| B11 | ≥ 10 |
